Columns and labels:
[1] = molecular target: 40S ribosomal subunit in ribosome complexes (40S/PIC, monosomes, polysomes), marked by Rps2 (S. cerevisiae (endogenous in yeast)) (UniProt P25443); experiment: co-sedimentation; lysates of cycloheximide-treated yeast crosslinked with 1% formaldehyde (30 min on ice, quenched with 0.1 M glycine), 5–45% sucrose gradients, 10 fractions of 1 ml, western blotting of fractions (anti-His for eIF4B, Rps2, eIF4A, eIF4G)
[2] = molecular target: 40S ribosomal subunit in ribosome complexes (40S/PIC, monosomes, polysomes), marked by Rps2 (S. cerevisiae (endogenous in yeast)) (UniProt P25443); experiment: co-sedimentation; yeast cultures crosslinked with 2% formaldehyde for 60 min on ice before lysis, 7.5–30% sucrose gradients (41,000 rpm, 5 h, SW-41), 0.63 ml fractions up to the 40S peak analysed by western blotting

Chain of UniProt P25443 (P25443 whole entry, looked up, tested part not stated, one chain of several): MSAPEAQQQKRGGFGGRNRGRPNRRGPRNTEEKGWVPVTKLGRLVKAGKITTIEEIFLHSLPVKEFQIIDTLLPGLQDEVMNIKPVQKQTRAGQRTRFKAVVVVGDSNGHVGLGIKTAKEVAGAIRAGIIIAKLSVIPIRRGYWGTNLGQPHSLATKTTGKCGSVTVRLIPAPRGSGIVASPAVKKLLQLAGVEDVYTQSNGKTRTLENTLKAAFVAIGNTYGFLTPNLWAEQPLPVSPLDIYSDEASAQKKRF

Molecule: yeast eIF4B lacking the N-terminal domain, C-terminal hexahistidine tag (domain or fragment)
- percent of the protein in fractions that lack 40S subunits and ribosomes [1]: 80%
- percent reduction of eIF4B in Rps2-containing fractions against WT [2]: 93%

B1: yeast eukaryotic initiation factor 4B, wild type, C-terminal hexahistidine tag (natural protein)
chain: MAPPKKTVKKMDLTSFLNDDTFGSSWAEEDVDLNKITIPIETANANTIPLSELAHAKNNSNNTRSGGFGGSFGGRSRLDPALGGGSSDRREEYPVPDAPPYRAVINNIPWDITPEGVQAWVEDGLVKPEAVEEVVLPKNLRDPTRLKGNAFVTLKERADLVAVLKFNGTKLNERTVYVSVAAPRRGGGADVDWSSARGSNFQGDGREDAPDLDWGAARGSNFRGPRREREEVDIDWTAARGSNFQGSSRPPRREREEVDIDWSAARGSNFQGSSRPPRREREEPDIDWSAARGSNFQSSSRPPRREREEPDIDWSAARGSNFQSSSRPPRREREKEEPALDWGAARGAQFGKPQQTKNTYKDRSLTNKKTTDEQPKIQKSVYDVLRTEDDDEDEEAEKQNGDAKENKVDAAVEKLQDKTAQLTVEDGDNWEVVGKK
- percent of the protein in Rps2/40S subunit-containing fractions [1]: 55%
